Publication PMC9709071
pEC50: −log10 of the molar value. Values joined by “and” are separate entries in the source; they are usually repeats but may differ in a detail not shown here. Equal entries are not always repeated.

How the values were obtained:
[1] = target: Fc-scTL1A (TL1W14) (human) (UniProt O95150); assay: SEC-MALS; Waters BEH SEC column, 25 °C, PBS pH 7.4, 5 µg of sample
[2] = target: Recombinant DR3-Fc (UniProt Q93038); assay: ELISA; receptor (DR3-Fc; DcR3) immobilised on Maxisorp plates, TL1A variant titrated in 3-fold dilutions, overnight 4 °C, detected with anti-human TL1A-biotin and streptavidin-HRP; concentrations normalised to TL1A trimer; triplicate
[3] = target: DcR3 (TNFRSF6B) (UniProt O95407); assay: ELISA; TL1A variants on DcR3; who was immobilised is not told for DcR3; triplicate
[4] = target: mouse DR3 (mouse)
[5] = target: Recombinant DR3-Fc (UniProt Q93038); assay: ELISA; DR3-Fc immobilised non-specifically on Maxisorp plates (overnight, 4 °C), casein block; TL1A added in 3-fold dilutions, overnight 4 °C; bound TL1A detected with polyclonal rabbit anti-human TL1A-biotin and streptavidin-HRP; concentrations normalised to TL1A trimers; triplicate
[6] = target: HSA-scTL1A (TL1W15) (human) (UniProt O95150); assay: ELISA; reversed format: TL1A molecules immobilised, DR3 titrated
[7] = target: Fc-scTL1A (TL1W14) (human) (UniProt O95150); assay: as above
Target sequence in this assay (O95150 other isoform, or with tags, fused parts or gaps): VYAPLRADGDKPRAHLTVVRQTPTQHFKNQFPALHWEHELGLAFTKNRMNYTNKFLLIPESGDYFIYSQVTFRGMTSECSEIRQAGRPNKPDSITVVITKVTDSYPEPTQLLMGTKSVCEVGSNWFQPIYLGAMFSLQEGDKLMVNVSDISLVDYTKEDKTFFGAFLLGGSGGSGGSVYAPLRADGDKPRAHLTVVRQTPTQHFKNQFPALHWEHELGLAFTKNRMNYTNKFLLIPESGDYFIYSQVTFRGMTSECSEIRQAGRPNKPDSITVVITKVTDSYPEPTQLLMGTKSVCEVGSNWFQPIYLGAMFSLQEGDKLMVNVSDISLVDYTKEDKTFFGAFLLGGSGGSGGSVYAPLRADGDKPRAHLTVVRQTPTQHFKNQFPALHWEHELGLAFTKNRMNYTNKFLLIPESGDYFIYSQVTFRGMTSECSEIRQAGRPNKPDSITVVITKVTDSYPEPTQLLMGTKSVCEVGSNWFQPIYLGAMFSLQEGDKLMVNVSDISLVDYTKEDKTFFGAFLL

[8] = target: DcR3 (UniProt O95407); assay: ELISA; receptor (DR3-Fc; DcR3) immobilised on Maxisorp plates, TL1A variant titrated in 3-fold dilutions, overnight 4 °C, detected with anti-human TL1A-biotin and streptavidin-HRP; concentrations normalised to TL1A trimer; triplicate
DcR3, sequence (O95407 30-300): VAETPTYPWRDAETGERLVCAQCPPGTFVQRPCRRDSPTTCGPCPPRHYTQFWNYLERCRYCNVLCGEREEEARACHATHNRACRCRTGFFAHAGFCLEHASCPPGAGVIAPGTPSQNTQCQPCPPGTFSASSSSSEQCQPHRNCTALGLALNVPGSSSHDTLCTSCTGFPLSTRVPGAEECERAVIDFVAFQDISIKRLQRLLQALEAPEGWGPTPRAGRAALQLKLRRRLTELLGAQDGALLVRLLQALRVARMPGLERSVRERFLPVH

DcR3 (TNFRSF6B), sequence (O95407 30-300): as above
Recombinant DR3-Fc, sequence (Q93038 25-199): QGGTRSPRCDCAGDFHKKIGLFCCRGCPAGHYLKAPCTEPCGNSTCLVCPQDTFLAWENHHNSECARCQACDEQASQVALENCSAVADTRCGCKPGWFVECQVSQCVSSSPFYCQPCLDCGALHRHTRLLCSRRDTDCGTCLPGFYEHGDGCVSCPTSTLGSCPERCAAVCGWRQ
HSA-scTL1A (TL1W15) (human), sequence (O95150 other isoform, or with tags, fused parts or gaps): as the sequence (O95150 other isoform, or with tags, fused parts or gaps) above

Row | Substance | stoichiometry N [1] | pEC50 [2] | pEC50 [3] | IFNg in C57BL/6 mice 6 h after Fc-scTL1A (i.p.) with anti-CD3 antibody (i.v.) [4] | pEC50 [5] | pEC50 [6] | pEC50 [7] | pEC50 [8]
1 | Fc-scTL1A (TL1W14) (from UniProt O95150 84-251; O95150 84-251; O95150 84-251) (Fc fusion) | 2 and 4 | 7.58 | 8.19 | 750 pg/mL | 8.01 | – | – | –
2 | Recombinant DR3-Fc (from UniProt Q93038 25-199) (Fc fusion) | – | – | – | – | – | 8.42 | 8.82 | –
3 | TL1W38 (L123K) (from UniProt O95150 1-251) (ligand) | – | 7.53 | 7.61 | – | 7.53 | – | – | –
4 | TL1W45 (E190F) (from UniProt O95150 1-251) (ligand) | – | – | 7.67 | – | 7.50 | – | – | –
5 | TL1W80 (K111A) (from UniProt O95150 1-251) (ligand) | – | – | 7.05 | – | 7.52 | – | – | 7.79
6 | TL1W92 (M158Y) (from UniProt O95150 1-251) (ligand) | – | – | 7.16 | – | 7.78 | – | – | 7.90
7 | TL1W95 (Q167A) (from UniProt O95150 1-251) (ligand) | – | – | 6.75 | – | 7.77 | – | – | 7.49
8 | TL1W109 (S187L) (from UniProt O95150 1-251) (ligand) | – | – | 7.07 | – | 7.75 | – | – | 7.81
9 | TL1W122 (N207F) (from UniProt O95150 1-251) (ligand) | – | – | 7.23 | – | 7.52 | – | – | 7.97
